# Laboratory results published in the supplement of paper PMC5998384.
# Columns and labels:
# HeLa Kyoto [1] = assay: solubility in G1/S (NP-40 vs SDS abundance) (log2 ratio); higher = more soluble; conditions: cell cycle stage: G1/S
# HeLa Kyoto [2] = assay: thermal stability score vs G1/S (z-score of summed log2 fold changes over temperatures); higher = more thermally stable than in G1/S
# HeLa Kyoto [3] = assay: solubility change mitosis vs G1/S (difference of NP-40 vs SDS log2 ratios) (log2 ratio difference); higher = more soluble in mitosis
# HeLa Kyoto [4] = assay: melting temperature (median over replicates), in situ; higher = more thermally stable
# [5] = cell cycle stage: early G1 (4.5 h after nocodazole release)
# 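Wherever melting temperature (median over replicates), in situ is given: HeLa Kyoto cells synchronized by double thymidine or nocodazole block, proteins quantified by TMT10plex mass spectrometry, three independent biological replicates.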
# 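Wherever solubility change mitosis vs G1/S (difference of NP-40 vs SDS log2 ratios) is given: synchronized HeLa Kyoto cells (double thymidine block for G1/S, nocodazole release for mitosis), protein amounts in NP-40 versus SDS lysates quantified by mass spectrometry, three biological replicates.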
# 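Wherever solubility in G1/S (NP-40 vs SDS abundance) is given: HeLa Kyoto cells arrested at G1/S by double thymidine block, proteins quantified by TMT10plex mass spectrometry in mild NP-40 versus SDS extracts, three biological replicates.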
# 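Wherever thermal stability score vs G1/S (z-score of summed log2 fold changes over temperatures) is given: synchronized HeLa Kyoto cells, proteins quantified by TMT10plex mass spectrometry, three biological replicates, mitosis taken 0.5 h after nocodazole release, G1/S directly after double thymidine block.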
Sequence,solubility in G1/S (log2) (HeLa Kyoto [1]),thermal stability score (HeLa Kyoto [2]; [5]),thermal stability score (HeLa Kyoto [2]; cell cycle stage: mitosis),solubility change mitosis (log2) (HeLa Kyoto [3]),melting temperature (HeLa Kyoto [4]; cell cycle stage: G1/S) [°C],melting temperature (HeLa Kyoto [4]; cell cycle stage: mitosis) [°C]
MQRVSGLLSWTLSRVLWLSGLSEPGAARQPRIMEEKALEVYDLIRTIRDPEKPNTLEELEVVSESCVEVQEINEEEYLVIIRFTPTVPHCSLATLIGLCLRVKLQRCLPFKHKLEIYISEGTHSTEEDINKQINDKERVAAAMENPNLREIVEQCVLEPD [FAM96A],0.0285,0.017,-0.983,0.184,54.9,55.3
MQSNKTFNLEKQNHTPRKHHQHHHQQQHHQQQQQQPPPPPIPANGQQASSQNEGLTIDLKNFRKPGEKTFTQRSRLFVGNLPPDITEEEMRKLFEKYGKAGEVFIHKDKGFGFIRLETRTLAEIAKVELDNMPLRGKQLRVRFACHSASLTVRNLPQYVSNELLEEAFSVFGQVERAVVIVDDRGRPSGKGIVEFSGKPAARKALDRCSEGSFLLTTFPRPVTVEPMDQLDDEEGLPEKLVIKNQQFHKEREQPPRFAQPGSFEYEYAMRWKALIEMEKQQQDQVDRNIKEAREKLEMEMEAARHEHQVMLMRQDLMRRQEELRRMEELHNQEVQKRKQLELRQEEERRRREEEMRRQQEEMMRRQQEGFKGTFPDAREQEIRMGQMAMGGAMGINNRGAMPPAPVPAGTPAPPGPATMMPDGTLGLTPPTTERFGQAATMEGIGAIGGTPPAFNRAAPGAEFAPNKRRRY [NONO],-0.113,4.71,11.4,0.501,46.6,47.8
MQTFLKGKRVGYWLSEKKIKKLNFQAFAELCRKRGMEVVQLNLSRPIEEQGPLDVIIHKLTDVILEADQNDSQSLELVHRFQEYIDAHPETIVLDPLPAIRTLLDRSKSYELIRKIEAYMEDDRICSPPFMELTSLCGDDTMRLLEKNGLTFPFICKTRVAHGTNSHEMAIVFNQEGLNAIQPPCVVQNFINHNAVLYKVFVVGESYTVVQRPSLKNFSAGTSDRESIFFNSHNVSKPESSSVLTELDKIEGVFERPSDEVIRELSRALRQALGVSLFGIDIIINNQTGQHAVIDINAFPGYEGVSEFFTDLLNHIATVLQGQSTAMAATGDVALLRHSKLLAEPAGGLVGERTCSASPGCCGSMMGQDAPWKAEADAGGTAKLPHQRLGCNAGVSPSFQQHCVASLATKASSQ [ITPK1],0.0668,0.291,-1.14,-0.011,51.9,51.3
MRALRAGLTLASGAGLGAVVEGWRRRREDARAAPGLLGRLPVLPVAAAAELPPVPGGPRGPGELAKYGLPGLAQLKSRESYVLCYDPRTRGALWVVEQLRPERLRGDGDRRECDFREDDSVHAYHRATNADYRGSGFDRGHLAAAANHRWSQKAMDDTFYLSNVAPQVPHLNQNAWNNLEKYSRSLTRSYQNVYVCTGPLFLPRTEADGKSYVKYQVIGKNHVAVPTHFFKVLILEAAGGQIELRTYVMPNAPVDEAIPLERFLVPIESIERASGLLFVPNILARAGSLKAITAGSK [ENDOG],0.34,1.54,0.994,0.0884,51.8,–
MRDRTHELRQGDDSSDEEDKERVALVVHPGTARLGSPDEEFFHKVRTIRQTIVKLGNKVQELEKQQVTILATPLPEESMKQELQNLRDEIKQLGREIRLQLKAIEPQKEEADENYNSVNTRMRKTQHGVLSQQFVELINKCNSMQSEYREKNVERIRRQLKITNAGMVSDEELEQMLDSGQSEVFVSNILKDTQVTRQALNEISARHSEIQQLERSIRELHDIFTFLATEVEMQGEMINRIEKNILSSADYVERGQEHVKTALENQKKARKKKVLIAICVSITVVLLAVIIGVTVVG [STX4],0.326,0.652,0.313,0.0104,51.2,50.5
MRECISIHVGQAGVQIGNACWELYCLEHGIQPDGQMPSDKTIGGGDDSFNTFFSETGAGKHVPRAVFVDLEPTVIDEVRTGTYRQLFHPEQLITGKEDAANNYARGHYTIGKEIIDLVLDRIRKLADQCTGLQGFLVFHSFGGGTGSGFTSLLMERLSVDYGKKSKLEFSIYPAPQVSTAVVEPYNSILTTHTTLEHSDCAFMVDNEAIYDICRRNLDIERPTYTNLNRLISQIVSSITASLRFDGALNVDLTEFQTNLVPYPRIHFPLATYAPVISAEKAYHEQLTVAEITNACFEPANQMVKCDPRHGKYMACCLLYRGDVVPKDVNAAIATIKTKRTIQFVDWCPTGFKVGINYQPPTVVPGGDLAKVQRAVCMLSNTTAVAEAWARLDHKFDLMYAKRAFVHWYVGEGMEEGEFSEAREDMAALEKDYEEVGADSADGEDEGEEY [TUBA1C],0.171,0.287,-2.74,-0.2,55.2,54.6
MRFRIYKRKVLILTLVVAACGFVLWSSNGRQRKNEALAPPLLDAEPARGAGGRGGDHPSVAVGIRRVSNVSAASLVPAVPQPEADNLTLRYRSLVYQLNFDQTLRNVDKAGTWAPRELVLVVQVHNRPEYLRLLLDSLRKAQGIDNVLVIFSHDFWSTEINQLIAGVNFCPVLQVFFPFSIQLYPNEFPGSDPRDCPRDLPKNAALKLGCINAEYPDSFGHYREAKFSQTKHHWWWKLHFVWERVKILRDYAGLILFLEEDHYLAPDFYHVFKKMWKLKQQECPECDVLSLGTYSASRSFYGMADKVDVKTWKSTEHNMGLALTRNAYQKLIECTDTFCTYDDYNWDWTLQYLTVSCLPKFWKVLVPQIPRIFHAGDCGMHHKKTCRPSTQSAQIESLLNNNKQYMFPETLTISEKFTVVAISPPRKNGGWGDIRDHELCKSYRRLQ [MGAT2],-0.0662,-0.501,-0.689,-0.141,53.8,53.2
MRGAGAILRPAARGARDLNPRRDISSWLAQWFPRTPARSVVALKTPIKVELVAGKTYRWCVCGRSKKQPFCDGSHFFQRTGLSPLKFKAQETRMVALCTCKATQRPPYCDGTHRSERVQKAEVGSPL [CISD3],-0.205,-0.749,-0.997,0.0825,50.8,–
MRGPEPGPQPTMEGDVLDTLEALGYKGPLLEEQALTKAAEGGLSSPEFSELCIWLGSQIKSLCNLEESITSAGRDDLESFQLEISGFLKEMACPYSVLISGDIKDRLKKKEDCLKLLLFLSTELQASQILQNKKHKNSQLDKNSEVYQEVQAMFDTLGIPKSTTSDIPHMLNQVESKVKDILSKVQKNHVGKPLLKMDLNSEQAEQLERINDALSCEYECRRRMLMKRLDVTVQSFGWSDRAKVKTDDIARIYQPKRYALSPKTTITMAHLLAAREDLSKIIRTSSGTSREKTACAINKVLMGRVPDRGGRPNEIEPPPPEMPPWQKRQEGGGGRGGWGGGGGGGGRGGGGGGGGRGGWGGGGGGWGGGGGGGGGWGGGGGGGRGGFQGRGDYGGRGGYGGRGGYGGRGYGDPYGGGGGGGGGGGGGGGYRRY [FAM98B],0.558,-0.356,0.627,0.0481,50.3,51.5
MRKFAYCKVVLATSLIWVLLDMFLLLYFSECNKCDEKKERGLPAGDVLEPVQKPHEGPGEMGKPVVIPKEDQEKMKEMFKINQFNLMASEMIALNRSLPDVRLEGCKTKVYPDNLPTTSVVIVFHNEAWSTLLRTVHSVINRSPRHMIEEIVLVDDASERDFLKRPLESYVKKLKVPVHVIRMEQRSGLIRARLKGAAVSKGQVITFLDAHCECTVGWLEPLLARIKHDRRTVVCPIIDVISDDTFEYMAGSDMTYGGFNWKLNFRWYPVPQREMDRRKGDRTLPVRTPTMAGGLFSIDRDYFQEIGTYDAGMDIWGGENLEISFRIWQCGGTLEIVTCSHVGHVFRKATPYTFPGGTGQIINKNNRRLAEVWMDEFKNFFYIISPGVTKVDYGDISSRVGLRHKLQCKPFSWYLENIYPDSQIPRHYFSLGEIRNVETNQCLDNMARKENEKVGIFNCHGMGGNQVFSYTANKEIRTDDLCLDVSKLNGPVTMLKCHHLKGNQLWEYDPVKLTLQHVNSNQCLDKATEEDSQVPSIRDCNGSRSQQWLLRNVTLPEIF [GALNT1],-0.204,3.31,5,-0.0904,53.1,52
MRKMLAAVSRVLSGASQKPASRVLVASRNFANDATFEIKKCDLHRLEEGPPVTTVLTREDGLKYYRMMQTVRRMELKADQLYKQKIIRGFCHLCDGQEACCVGLEAGINPTDHLITAYRAHGFTFTRGLSVREILAELTGRKGGCAKGKGGSMHMYAKNFYGGNGIVGAQVPLGAGIALACKYNGKDEVCLTLYGDGAANQGQIFEAYNMAALWKLPCIFICENNRYGMGTSVERAAASTDYYKRGDFIPGLRVDGMDILCVREATRFAAAYCRSGKGPILMELQTYRYHGHSMSDPGVSYRTREEIQEVRSKSDPIMLLKDRMVNSNLASVEELKEIDVEVRKEIEDAAQFATADPEPPLEELGYHIYSSDPPFEVRGANQWIKFKSVS [PDHA1],0.149,-1.47,-2.37,-0.122,52.1,51.5
MRLHLLLLLALCGAGTTAAELSYSLRGNWSICNGNGSLELPGAVPGCVHSALFQQGLIQDSYYRFNDLNYRWVSLDNWTYSKEFKIPFEISKWQKVNLILEGVDTVSKILFNEVTIGETDNMFNRYSFDITNVVRDVNSIELRFQSAVLYAAQQSKAHTRYQVPPDCPPLVQKGECHVNFVRKEQCSFSWDWGPSFPTQGIWKDVRIEAYNICHLNYFTFSPIYDKSAQEWNLEIESTFDVVSSKPVGGQVIVAIPKLQTQQTYSIELQPGKRIVELFVNISKNITVETWWPHGHGNQTGYNMTVLFELDGGLNIEKSAKVYFRTVELIEEPIKGSPGLSFYFKINGFPIFLKGSNWIPADSFQDRVTSELLRLLLQSVVDANMNTLRVWGGGIYEQDEFYELCDELGIMVWQDFMFACALYPTDQGFLDSVTAEVAYQIKRLKSHPSIIIWSGNNENEEALMMNWYHISFTDRPIYIKDYVTLYVKNIRELVLAGDKSRPFITSSPTNGAETVAEAWVSQNPNSNYFGDVHFYDYISDCWNWKVFPKARFASEYGYQSWPSFSTLEKVSSTEDWSFNSKFSLHRQHHEGGNKQMLYQAGLHFKLPQSTDPLRTFKDTIYLTQVMQAQCVKTETEFYRRSRSEIVDQQGHTMGALYWQLNDIWQAPSWASLEYGGKWKMLHYFAQNFFAPLLPVGFENENTFYIYGVSDLHSDYSMTLSVRVHTWSSLEPVCSRVTERFVMKGGEAVCLYEEPVSELLRRCGNCTRESCVVSFYLSADHELLSPTNYHFLSSPKEAVGLCKAQITAIISQQGDIFVFDLETSAVAPFVWLDVGSIPGRFSDNGFLMTEKTRTILFYPWEPTSKNELEQSFHVTSLTDIY [MANBA],-0.0999,-1.93,-0.28,-0.0887,55.6,56
MRLKIGFILRSLLVVGSFLGLVVLWSSLTPRPDDPSPLSRMREDRDVNDPMPNRGGNGLAPGEDRFKPVVPWPHVEGVEVDLESIRRINKAKNEQEHHAGGDSQKDIMQRQYLTFKPQTFTYHDPVLRPGILGNFEPKEPEPPGVVGGPGEKAKPLVLGPEFKQAIQASIKEFGFNMVASDMISLDRSVNDLRQEECKYWHYDENLLTSSVVIVFHNEGWSTLMRTVHSVIKRTPRKYLAEIVLIDDFSNKEHLKEKLDEYIKLWNGLVKVFRNERREGLIQARSIGAQKAKLGQVLIYLDAHCEVAVNWYAPLVAPISKDRTICTVPLIDVINGNTYEIIPQGGGDEDGYARGAWDWSMLWKRVPLTPQEKRLRKTKTEPYRSPAMAGGLFAIEREFFFELGLYDPGLQIWGGENFEISYKIWQCGGKLLFVPCSRVGHIYRLEGWQGNPPPIYVGSSPTLKNYVRVVEVWWDEYKDYFYASRPESQALPYGDISELKKFREDHNCKSFKWFMEEIAYDITSHYPLPPKNVDWGEIRGFETAYCIDSMGKTNGGFVELGPCHRMGGNQLFRINEANQLMQYDQCLTKGADGSKVMITHCNLNEFKEWQYFKNLHRFTHIPSGKCLDRSEVLHQVFISNCDSSKTTQKWEMNNIHSV [GALNT7],-0.206,0.0877,0.865,-0.135,53.7,53.8
